Sequences and labels used below:
B1: HDV Ribozyme (parent)
chain: GGCCGGCAUGGUCCCAGCCUCCUCGCUGGCGCCGGCUGGGCAACAUUCCGAGGGGACCGUCCCCUCGGUAAUGGCGAAUGGGACCCA

The series covers variants of B1. As to the kind of experiment: self-cleavage, relative activity (ratio to wild type); higher = more cleavage; co-transcriptional.
U9A C62A: the self-cleavage worked out at 1.03.

Consider C32G A77C, for which the self-cleavage stood at 0.0536.

For the variant C3U A16C, the self-cleavage stood at 0.437.

Turning to G67A G82A, the self-cleavage is 0.285.

With A8U G68C, the self-cleavage came to 0.752.

On to G11A G39U, for which the self-cleavage was determined as 0.0989.

As to G6A G25C, the self-cleavage was found to be 0.0462.

Take G11U A16C: the self-cleavage came to 0.38.

Regarding G28C G35A, the self-cleavage was found to be 0.0326.

As for C19U G55C, the self-cleavage is 0.164.

On to G28U A42C, for which the self-cleavage was determined as 0.0415.

As for C33U C85U, the self-cleavage was found to be 0.831.

Regarding G50C G76C, the self-cleavage came to 1.08.

As for G5C G53U, the self-cleavage worked out at 0.291.

For C3G A78U, the self-cleavage was 0.125.

As to G40A C64A, the self-cleavage came to 0.89.

For the variant C19A G53C, the self-cleavage is 0.23.

Take C75A A78U: the self-cleavage is 0.0852.

As for G29A G74U, the self-cleavage stood at 0.073.

For G53A U65C, the self-cleavage stood at 0.815.

As to C24U G29C, the self-cleavage was 0.138.

Regarding G74A C84U, the self-cleavage stood at 0.446.

As to G53U A87U, the self-cleavage worked out at 0.969.

As to C19A G80A, the self-cleavage was found to be 0.0329.

Consider U12C C58U, for which the self-cleavage came out at 0.222.

As for G5A G53C, the self-cleavage was 0.302.

For the variant C15G G55C, the self-cleavage worked out at 0.582.

As for G38A C48A, the self-cleavage stood at 0.121.

For G38A C48U, the self-cleavage turned out to be 0.115.

For G29C G80C, the self-cleavage came to 0.0308.

For the variant G31A C57U, the self-cleavage is 0.421.

A16G C58A: the self-cleavage turned out to be 0.762.

For C19A A70U, the self-cleavage was determined as 0.277.

Turning to C19A A70C, the self-cleavage is 0.0573.

With C44U C58A, the self-cleavage amounted to 1.07.

On to C24G A87U, for which the self-cleavage is 0.0902.

Consider G52U G68C, for which the self-cleavage came out at 0.185.

As for G6C G80A, the self-cleavage came out at 0.0665.

In the case of G31A U65C, the self-cleavage stood at 0.462.

Turning to G53C U72A, the self-cleavage was found to be 0.601.

As to U12A G54A, the self-cleavage was 0.306.

C4A G74U: the self-cleavage was found to be 0.0583.

Turning to C64G C86U, the self-cleavage came out at 0.845.

Take U12G A43C: the self-cleavage came out at 0.431.

Take G25C G54A: the self-cleavage came to 0.219.

For the variant C64G C75A, the self-cleavage turned out to be 0.201.

In the case of G5A G81C, the self-cleavage stood at 0.0791.

G6C C84U: the self-cleavage stood at 0.0573.

Turning to A45C C49G, the self-cleavage is 0.492.

As for C24U G38C, the self-cleavage was found to be 0.0554.

Turning to U27G C33U, the self-cleavage was determined as 0.935.

As to A42U G53C, the self-cleavage came to 0.437.

On to G2C G35A, for which the self-cleavage was determined as 0.0623.

Take C21A C30A: the self-cleavage is 0.0373.

As to A71C, the self-cleavage is 0.84.

Consider C61U C63G, for which the self-cleavage came out at 0.243.

As for G52A G74A, the self-cleavage is 0.518.

For U65A U72A, the self-cleavage was 0.636.

In the case of C19A G50U, the self-cleavage came out at 0.254.

Regarding U12A U65A, the self-cleavage is 0.431.

Take G25C C75G: the self-cleavage stood at 0.185.

For the variant U23G U65A, the self-cleavage is 0.886.

In the case of C33A G73A, the self-cleavage amounted to 0.147.

With G35U A45G, the self-cleavage worked out at 0.365.

Turning to G35C G38A, the self-cleavage was determined as 0.155.

As for C63A C64U, the self-cleavage was 0.903.

Consider C48A U65G, for which the self-cleavage stood at 0.954.

For the variant U20C U72G, the self-cleavage stood at 0.0723.

With U12G A87C, the self-cleavage turned out to be 0.749.

With G34C U37A, the self-cleavage is 0.297.

In the case of C14G G80A, the self-cleavage was 0.346.

Regarding G2A C75A, the self-cleavage came out at 0.0542.

C22G G50U: the self-cleavage is 0.0297.

Turning to A45U C75A, the self-cleavage is 0.277.

For the variant U20C G67C, the self-cleavage came out at 0.405.

With C33G U37C, the self-cleavage stood at 0.122.

As to A42G G67C, the self-cleavage worked out at 0.365.

Turning to A8U U27C, the self-cleavage is 0.196.

On to U47C G80A, for which the self-cleavage worked out at 0.215.

Take C36U A70G: the self-cleavage was 0.969.

Consider C33G G40A, for which the self-cleavage was 0.243.

For the variant C66U G81U, the self-cleavage amounted to 0.382.

As to A8G U23A, the self-cleavage came out at 0.9.

As for G10C C48A, the self-cleavage amounted to 0.853.

For G10C C48G, the self-cleavage came to 1.17.

As to C13G C14A, the self-cleavage came out at 0.

C21G G29C: the self-cleavage was 0.0707.

Regarding U12C A45G, the self-cleavage stood at 0.277.

As to A45G A83U, the self-cleavage turned out to be 0.485.

As to U37C U72G, the self-cleavage was determined as 0.429.

With C30A G34C, the self-cleavage is 0.119.

As for A42G G59C, the self-cleavage was found to be 0.703.

C15G A56C: the self-cleavage came to 0.739.

C33A C86A: the self-cleavage stood at 0.277.

Regarding U37G G73A, the self-cleavage was determined as 0.

Consider U37G G73C, for which the self-cleavage stood at 0.0791.

For the variant U20G G74A, the self-cleavage came out at 0.0923.

Turning to G29C C57A, the self-cleavage came to 0.125.

Turning to G6U G28U, the self-cleavage stood at 0.104.

For the variant C33G A56U, the self-cleavage turned out to be 0.228.

With U37C A71C, the self-cleavage came to 0.917.

A8C C14U: the self-cleavage is 0.831.

As for U12G U23C, the self-cleavage amounted to 0.997.

For G17C C84A, the self-cleavage amounted to 0.231.

Take G1A G50A: the self-cleavage was 0.

As for C44A C86G, the self-cleavage was 0.787.

As to G2C G76C, the self-cleavage was found to be 0.0747.

For the variant G1C U69G, the self-cleavage came to 0.208.

As to U12G C22U, the self-cleavage is 0.256.

For the variant C66G A70C, the self-cleavage was 0.758.

For the variant C41U G50C, the self-cleavage was found to be 0.67.

As to C49U U72A, the self-cleavage came out at 0.965.

For the variant U23G G50C, the self-cleavage was determined as 0.767.

As to C30U G39U, the self-cleavage was determined as 0.0936.

With A16C A51G, the self-cleavage came out at 0.475.

On to C22A C62A, for which the self-cleavage was found to be 0.339.

With C26G G82C, the self-cleavage is 0.499.

For A42G C63A, the self-cleavage was determined as 0.359.

With C64U C75A, the self-cleavage worked out at 0.242.

For the variant G5U C44G, the self-cleavage is 0.217.

For C4U G76A, the self-cleavage turned out to be 0.443.

Take G2U A16C: the self-cleavage worked out at 0.

With U9C G76A, the self-cleavage is 1.05.

As to C18G G76U, the self-cleavage amounted to 0.227.

Consider A8U A77G, for which the self-cleavage turned out to be 0.779.

Consider C64U A83U, for which the self-cleavage worked out at 0.361.

For the variant C64A G67A, the self-cleavage came out at 0.369.

C13A A51G: the self-cleavage came to 0.148.

As to G53C U69A, the self-cleavage was found to be 0.77.

As to G28A A78G, the self-cleavage turned out to be 0.185.

Consider C15A C66U, for which the self-cleavage worked out at 0.909.

Consider G5U C63A, for which the self-cleavage turned out to be 0.332.

For the variant G59U C75U, the self-cleavage is 0.145.

On to C24A A83G, for which the self-cleavage came to 0.626.

With G68U C86U, the self-cleavage came out at 1.05.

In the case of G29A C30A, the self-cleavage is 0.0264.

Turning to C4A C84G, the self-cleavage came to 0.138.

For A16U U20G, the self-cleavage came to 0.0791.

For the variant U72A C84A, the self-cleavage is 0.639.

Take U37C U65A: the self-cleavage turned out to be 0.929.

Regarding C19G G40C, the self-cleavage amounted to 0.102.

For A8G A77G, the self-cleavage worked out at 0.867.

As to C44G G68U, the self-cleavage was determined as 0.399.

As to A16U G74A, the self-cleavage was found to be 0.388.

On to C41A A43C, for which the self-cleavage was determined as 0.872.

On to G17A U65G, for which the self-cleavage came to 0.773.

G6C G50U: the self-cleavage was 0.17.

For the variant C7U C63G, the self-cleavage stood at 0.569.

For C7U C63A, the self-cleavage was determined as 0.751.

Turning to G40A C41A, the self-cleavage stood at 0.893.

For the variant A56U C63U, the self-cleavage stood at 0.799.

On to G2C C26A, for which the self-cleavage amounted to 0.314.

Take C13U C62A: the self-cleavage is 0.489.

For the variant G25A A42G, the self-cleavage stood at 0.158.

Consider G2A G59U, for which the self-cleavage is 0.19.

Regarding G17C A87G, the self-cleavage was determined as 0.244.

For C3G G6U, the self-cleavage was determined as 0.0665.

Consider C33G U46G, for which the self-cleavage was found to be 0.208.

For C22U C44U, the self-cleavage came out at 0.249.

G25U C84A: the self-cleavage is 0.222.

Regarding G50A G76A, the self-cleavage was found to be 1.05.

For G55U C86U, the self-cleavage was 0.923.

For the variant C63G G76C, the self-cleavage turned out to be 0.967.

Take A16C C30U: the self-cleavage was 0.449.

On to G54U U72C, for which the self-cleavage was found to be 0.554.

For the variant C15A U46C, the self-cleavage came out at 0.653.

As for C13A U37G, the self-cleavage turned out to be 0.147.

Values taken from the RNAGym collection of RNA variant scans (doi:10.7554/elife.80360).
